What all share (test): SPR
Background: Surface plasmon resonance follows binding to a sensor surface in real time, without labels.

One assay deals with T1, Noggin (UniProt Q13253 28-232, biotinylated).
T1 sequence: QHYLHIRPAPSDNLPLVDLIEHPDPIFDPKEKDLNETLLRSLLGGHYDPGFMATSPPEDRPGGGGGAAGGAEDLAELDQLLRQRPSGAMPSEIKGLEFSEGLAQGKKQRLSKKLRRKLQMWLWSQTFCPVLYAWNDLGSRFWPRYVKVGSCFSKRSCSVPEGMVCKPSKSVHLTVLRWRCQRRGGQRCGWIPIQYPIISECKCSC

The target in assay [1] is T2, human BMPR-II extracellular domain (human, UniProt Q13873 32-150, biotinylated at a 1:1 molar stoichiometric ratio using Sulfo-NHS-LC-biotin).
T2 sequence: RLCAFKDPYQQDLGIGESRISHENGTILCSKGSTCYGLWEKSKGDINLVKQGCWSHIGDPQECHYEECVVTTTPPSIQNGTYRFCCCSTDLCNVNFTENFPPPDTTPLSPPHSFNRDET

Assay [2] has as its target human ALK1 extracellular domain (human, UniProt P37023 22-118, biotinylated at a 1:1 molar stoichiometric ratio using Sulfo-NHS-LC-biotin).

Chain of human ALK1 extracellular domain (P37023 22-118): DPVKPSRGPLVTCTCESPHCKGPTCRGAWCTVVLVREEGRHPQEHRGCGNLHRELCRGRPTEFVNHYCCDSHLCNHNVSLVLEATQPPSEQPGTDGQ

B1: BMP2 WT (ligand)
chain: QAKHKQRKRLKSSCKRHPLYVDFSDVGWNDWIVAPPGYHAFYCHGECPFPLADHLNSTNHAIVQTLVNSVNSKIPKACCVPTELSAISMLYLDENEKVVLKNYQDMVVEGCGCR
By Kd is commonly meant the constant that tells how readily two partners part at equilibrium. With B1, the Kd in the assay with Noggin worked out at 1.2 nM; in assay [1], 66.9 nM.

B2: BMP9 WT (ligand)
chain: SAGAGSHCQKTSLRVNFEDIGWDSWIIAPKEYEAYECKGGCFFPLADDVTPTKHAIVQTLVHLKFPTKVGKACCVPTKLSPISVLYKDDMGVPTLKYHYEGMSVAECGCR
B2: the Kd in assay [1] is 13.3 nM.

B3: BMP9 HB (ligand)
chain: MAQAHKHQRKRLKSSCQKTSLRVNFEDIGWDSWIIAPKEYEAYECKGGCFFPLADDVTPTKHAIVQTLVHLKFPTKVGKACCVPTKLSPISVLYKDDMGVPTLKYHYEGMSVAECGCR
As for B3, the figures for the Kd in assay [2] and in assay [1] were 5.59 nM and 11.6 nM, respectively.
